In series [1] the test system is HeLa Kyoto. Put plainly: solubility in G1/S (NP-40 vs SDS abundance) (log2 ratio); higher = more soluble. The following applies: cell cycle stage: G1/S.
Series [2] relates to HeLa Kyoto. Put plainly: melting temperature (median over replicates), in situ; higher = more thermally stable.
The test system of series [3] is HeLa Kyoto. Description: solubility change mitosis vs G1/S (difference of NP-40 vs SDS log2 ratios) (log2 ratio difference); higher = more soluble in mitosis.
Series [4] concerns HeLa Kyoto. Put plainly: thermal stability score vs G1/S (z-score of summed log2 fold changes over temperatures); higher = more thermally stable than in G1/S.
The mark [5] stands for this setting: cell cycle stage: early G1 (4.5 h after nocodazole release).

The values that follow come from the supplement of paper PMC5998384.
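For melting temperature (median over replicates), in situ in this document: HeLa Kyoto cells synchronized by double thymidine or nocodazole block, proteins quantified by TMT10plex mass spectrometry, three independent biological replicates.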
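For solubility change mitosis vs G1/S (difference of NP-40 vs SDS log2 ratios) in this document: synchronized HeLa Kyoto cells (double thymidine block for G1/S, nocodazole release for mitosis), protein amounts in NP-40 versus SDS lysates quantified by mass spectrometry, three biological replicates.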
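For solubility in G1/S (NP-40 vs SDS abundance) in this document: HeLa Kyoto cells arrested at G1/S by double thymidine block, proteins quantified by TMT10plex mass spectrometry in mild NP-40 versus SDS extracts, three biological replicates.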
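For thermal stability score vs G1/S (z-score of summed log2 fold changes over temperatures) in this document: synchronized HeLa Kyoto cells, proteins quantified by TMT10plex mass spectrometry, three biological replicates, mitosis taken 0.5 h after nocodazole release, G1/S directly after double thymidine block.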

Turning to “MGRLDGKVIILTAAAQGIGQAAALAFAREGAKVIATDINESKLQELEKYPGIQTRVLDVTKKKQIDQFANEVERLDVLFNVAGFVHHGTVLDCEEKDWDFSMNLNVRSMYLMIKAFLPKMLAQKSGNIINMSSVASSVKGVVNRCVYSTTKAAVIGLTKSVAADFIQQGIRCNCVCPGTVDTPSLQERIQARGNPEEARNDFLKRQKTGRFATAEEIAMLCVYLASDESAYVTGNPVIIDGGWSL [BDH2]”, the “solubility in G1/S (log2)” value in the series on HeLa Kyoto [1] was 0.0418. Besides, the values for the melting temperature with HeLa Kyoto [2] (cell cycle stage: G1/S) and with HeLa Kyoto [2] (cell cycle stage: mitosis) were 51.4 °C and 51.3 °C, respectively. For the same sequence, in the series on HeLa Kyoto [3], the “solubility change mitosis (log2)” value was -0.101. Also, the thermal stability score with HeLa Kyoto [4] (setting [5]) is 0.0249; in the series on HeLa Kyoto [4] (cell cycle stage: mitosis) it was -0.29.

On to “MGRRALLLLLLSFLAPWATIALRPALRALGSLHLPTNPTSLPAVAKNYSVLYFQQKVDHFGFNTVKTFNQRYLVADKYWKKNGGSILFYTGNEGDIIWFCNNTGFMWDVAEELKAMLVFAEHRYYGESLPFGDNSFKDSRHLNFLTSEQALADFAELIKHLKRTIPGAENQPVIAIGGSYGGMLAAWFRMKYPHMVVGALAASAPIWQFEDLVPCGVFMKIVTTDFRKSGPHCSESIHRSWDAINRLSNTGSGLQWLTGALHLCSPLTSQDIQHLKDWISETWVNLAMVDYPYASNFLQPLPAWPIKVVCQYLKNPNVSDSLLLQNIFQALNVYYNYSGQVKCLNISETATSSLGTLGWSYQACTEVVMPFCTNGVDDMFEPHSWNLKELSDDCFQQWGVRPRPSWITTMYGGKNISSHTNIVFSNGELDPWSGGGVTKDITDTLVAVTISEGAHHLDLRTKNALDPMSVLLARSLEVRHMKNWIRDFYDSAGKQH [PRCP]”, for which the “solubility in G1/S (log2)” value with HeLa Kyoto [1] stood at 0.0413. For the same sequence, the melting temperature in the series with HeLa Kyoto [2] (cell cycle stage: G1/S) stood at 58.5 °C; in the series on HeLa Kyoto [2] (cell cycle stage: mitosis), 54.1 °C. In addition, the “solubility change mitosis (log2)” value with HeLa Kyoto [3] is -0.246. For the same sequence, the thermal stability score is -0.942 with HeLa Kyoto [4] (setting [5]) and -2.23 in the series with HeLa Kyoto [4] (cell cycle stage: mitosis).

For the sequence “MGRRSSDTEEESRSKRKKKHRRRSSSSSSSDSRTYSRKKGGRKSRSKSRSWSRDLQPRSHSYDRRRRHRSSSSSSYGSRRKRSRSRSRGRGKSYRVQRSRSKSRTRRSRSRPRLRSHSRSSERSSHRRTRSRSRDRERRKGRDKEKREKEKDKGKDKELHNIKRGESGNIKAGLEHLPPAEQAKARLQLVLEAAAKADEALKAKERNEEEAKRRKEEDQATLVEQVKRVKEIEAIESDSFVQQTFRSSKEVKKSVEPSEVKQATSTSGPASAVADPPSTEKEIDPTSIPTAIKYQDDNSLAHPNLFIEKADAEEKWFKRLIALRQERLMGSPVA [RSRC1]”, the “solubility in G1/S (log2)” value in the series on HeLa Kyoto [1] is -0.945. Also, the values for the melting temperature with HeLa Kyoto [2] (cell cycle stage: G1/S) and with HeLa Kyoto [2] (cell cycle stage: mitosis) were 51.5 °C and 50.4 °C, respectively. The “solubility change mitosis (log2)” value with HeLa Kyoto [3] was found to be 0.261. For the same sequence, the thermal stability score in the series with HeLa Kyoto [4] (setting [5]) is -1.05; in the series with HeLa Kyoto [4] (cell cycle stage: mitosis), -4.78.

As to “MGRRSTSSTKSGKFMNPTDQARKEARKRELKKNKKQRMMVRAAVLKMKDPKQIIRDMEKLDEMEFNPVQQPQLNEKVLKDKRKKLRETFERILRLYEKENPDIYKELRKLEVEYEQKRAQLSQYFDAVKNAQHVEVESIPLPDMPHAPSNILIQDIPLPGAQPPSILKKTSAYGPPTRAVSILPLLGHGVPRLPPGRKPPGPPPGPPPPQVVQMYGRKVGFALDLPPRRRDEDMLYSPELAQRGHDDDVSSTSEDDGYPEDMDQDKHDDSTDDSDTDKSDGESDGDEFVHRDNGERDNNEEKKSGLSVRFADMPGKSRKKKKNMKELTPLQAMMLRMAGQEIPEEGREVEEFSEDDDEDDSDDSEAEKQSQKQHKEESHSDGTSTASSQQQAPPQSVPPSQIQAPPMPGPPPLGPPPAPPLRPPGPPTGLPPGPPPGAPPFLRPPGMPGLRGPLPRLLPPGPPPGRPPGPPPGPPPGLPPGPPPRGPPPRLPPPAPPGIPPPRPGMMRPPLVPPLGPAPPGLFPPAPLPNPGVLSAPPNLIQRPKADDTSAATIEKKATATISAKPQITNPKAEITRFVPTALRVRRENKGATAAPQRKSEDDSAVPLAKAAPKSGPSVPVSVQTKDDVYEAFMKEMEGLL [WBP11]”, the “solubility in G1/S (log2)” value in the series with HeLa Kyoto [1] came out at 0.135. In addition, the melting temperature with HeLa Kyoto [2] (cell cycle stage: G1/S) stood at 55.4 °C; in the series on HeLa Kyoto [2] (cell cycle stage: mitosis), 53.8 °C. In addition, the “solubility change mitosis (log2)” value in the series on HeLa Kyoto [3] is 0.186. Besides, the thermal stability score was -1.77 in the series with HeLa Kyoto [4] (setting [5]) and -3.87 in the series with HeLa Kyoto [4] (cell cycle stage: mitosis).

For “MGRTVVVLGGGISGLAASYHLSRAPCPPKVVLVESSERLGGWIRSVRGPNGAIFELGPRGIRPAGALGARTLLLVSELGLDSEVLPVRGDHPAAQNRFLYVGGALHALPTGLRGLLRPSPPFSKPLFWAGLRELTKPRGKEPDETVHSFAQRRLGPEVASLAMDSLCRGVFAGNSRELSIRSCFPSLFQAEQTHRSILLGLLLGAGRTPQPDSALIRQALAERWSQWSLRGGLEMLPQALETHLTSRGVSVLRGQPVCGLSLQAEGRWKVSLRDSSLEADHVISAIPASVLSELLPAEAAPLARALSAITAVSVAVVNLQYQGAHLPVQGFGHLVPSSEDPGVLGIVYDSVAFPEQDGSPPGLRVTVMLGGSWLQTLEASGCVLSQELFQQRAQEAAATQLGLKEMPSHCLVHLHKNCIPQYTLGHWQKLESARQFLTAHRLPLTLAGASYEGVAVNDCIESGRQAAVSVLGTEPNS [PPOX]”, in the series on HeLa Kyoto [1], the “solubility in G1/S (log2)” value was 0.0337. In addition, the melting temperature in the series with HeLa Kyoto [2] (cell cycle stage: G1/S) is 53.3 °C; in the series on HeLa Kyoto [2] (cell cycle stage: mitosis) it was 54 °C. The “solubility change mitosis (log2)” value in the series on HeLa Kyoto [3] is -0.0988. Also, the results for the thermal stability score in the series with HeLa Kyoto [4] (setting [5]) and in the series on HeLa Kyoto [4] (cell cycle stage: mitosis) were 0.0829 and -0.0946, respectively.
